± gives the standard error. This sample holds only a part of the variants without activity.
B1: glmS ribozyme (parent)
chain: AUAAAAGCGCCAGAACUACAGAAAUGUAGUUGACGAGGAGGAGGUUUAUCGAAUUUUCGGCGGAUGCCUCCAAA

Assays:
Details in all cases: with glucosamine-6-phosphate
[1] = variants of: B1; experiment: self-cleavage kobs at 40 uM GlcN6P; higher = faster cleavage; RNA array
In short: (§1)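 kcat and KM were obtained from weighted Michaelis–Menten fits across concentrations of kobs values. Those came from one- or two-exponential decay fits to per-tile medians normalised to baseline and to non-cleaving reference variants. The variants were barcoded ribozymes transcribed in situ by E. coli RNA polymerase on sequenced MiSeq chips and tracked through a hybridised Cy3 probe at 37 °C, with 40 μM to 10 mM glucosamine-6-phosphate in HEPES/KCl/Mg(OAc)2 buffer flowed in.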

[2] = variants of: B1; experiment: self-cleavage kobs at 160 uM GlcN6P; higher = faster cleavage; RNA array
In short: as §1

[3] = variants of: B1; experiment: self-cleavage kobs at 2500 uM GlcN6P; higher = faster cleavage; RNA array
In short: as §1

[4] = variants of: B1; experiment: self-cleavage kobs at 10000 uM GlcN6P; higher = faster cleavage; RNA array
In short: as §1

[5] = variants of: B1; experiment: self-cleavage kobs at 640 uM GlcN6P; higher = faster cleavage; RNA array
In short: as §1

Variant | self-cleavage kobs at 40 uM GlcN6P [1] [s⁻¹] | self-cleavage kobs at 160 uM GlcN6P [2] [s⁻¹] | self-cleavage kobs at 2500 uM GlcN6P [3] [s⁻¹] | self-cleavage kobs at 10000 uM GlcN6P [4] [s⁻¹] | self-cleavage kobs at 640 uM GlcN6P [5] [s⁻¹]
G7U G51A | < 1e-05 | < 1e-05 | < 1e-05 | < 1e-05 | –
C16A A36G | < 1e-05 | < 1e-05 | – | < 1e-05 | < 1e-05
G7U U30G C50G C61A | 0.000244 ± 8.9e-05 | – | – | 0.000292 ± 7.4e-05 | –
G13C C50G G66C | 3.47e-05 ± 1.6e-05 | – | – | – | –
C11A A12G U65A C67G | 0.000126 ± 3e-05 | 0.000766 ± 0.00026 | 0.000105 ± 2.9e-05 | 5.83e-05 ± 1.5e-05 | 0.000193 ± 6.4e-05
A15G G35C C68A | < 1e-05 | – | – | – | –
A14G C16U | 0.00189 ± 0.00023 | 0.0032 ± 0.0007 | 0.00522 ± 0.0012 | 0.0726 ± 0.02 | 0.00488 ± 0.00082
C11A C34U | < 1e-05 | – | – | – | < 1e-05
A42C G59C | < 1e-05 | < 1e-05 | < 1e-05 | < 1e-05 | < 1e-05
A6G U31C C68A | < 1e-05 | – | – | – | –
G38U G63U | < 1e-05 | – | < 1e-05 | < 1e-05 | –
A14C G60C | < 1e-05 | < 1e-05 | < 1e-05 | < 1e-05 | –
U31A C61U | < 1e-05 | < 1e-05 | – | – | < 1e-05
G44A G51A U65G C67G | < 1e-05 | < 1e-05 | < 1e-05 | < 1e-05 | < 1e-05
G9U G38A U56C G63U | < 1e-05 | – | – | < 1e-05 | –
C8G A36U G37U A52U U54A | < 1e-05 | – | – | < 1e-05 | –
G37C U55C | < 1e-05 | – | – | 5.46e-05 ± 9.7e-06 | –
G35C G62A | < 1e-05 | < 1e-05 | < 1e-05 | < 1e-05 | < 1e-05
U31A U55C G63C C67G | < 1e-05 | – | < 1e-05 | < 1e-05 | –
U47A C50G C68A | 0.000209 ± 7.9e-05 | – | – | 0.000323 ± 6.5e-05 | –
A6G U30G U54A C67G | < 1e-05 | – | – | < 1e-05 | –
A6G G59A A64U | < 1e-05 | – | – | < 1e-05 | < 1e-05
